Data published in patent US20160046706A1 (MEDICAL AND BIOLOGICAL LABORATORIES, published 2016).

T1: human NRG1-α protein (full length, HA tag at the N-terminus, on NRG1-a/st293T cells) (human, UniProt Q02297 20-640)
T1 construct: also called NRG1 isoform 2; HA-NRG1-a/st293T; not shown: HA tag added to the N-terminus
T1 sequence: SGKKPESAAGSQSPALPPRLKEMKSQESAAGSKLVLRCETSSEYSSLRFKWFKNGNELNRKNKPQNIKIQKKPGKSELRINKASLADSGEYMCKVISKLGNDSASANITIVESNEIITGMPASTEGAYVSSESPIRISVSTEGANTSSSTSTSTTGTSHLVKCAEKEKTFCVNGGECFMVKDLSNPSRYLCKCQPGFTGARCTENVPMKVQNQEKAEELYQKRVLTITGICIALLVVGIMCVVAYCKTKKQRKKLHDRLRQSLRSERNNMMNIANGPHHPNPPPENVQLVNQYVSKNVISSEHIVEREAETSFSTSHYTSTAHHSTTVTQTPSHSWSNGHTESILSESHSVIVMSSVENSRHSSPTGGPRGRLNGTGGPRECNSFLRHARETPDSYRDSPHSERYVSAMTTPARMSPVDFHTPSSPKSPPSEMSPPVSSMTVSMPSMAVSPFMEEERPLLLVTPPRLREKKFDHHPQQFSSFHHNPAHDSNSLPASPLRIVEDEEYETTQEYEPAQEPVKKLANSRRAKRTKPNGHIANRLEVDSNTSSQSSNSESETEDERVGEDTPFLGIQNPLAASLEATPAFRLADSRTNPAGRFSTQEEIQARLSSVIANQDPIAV

T2: AREG (amphiregulin; R&D Systems 262-AR-100/CF) (UniProt P15514 101-198)
T2 construct: Bought protein
T2 sequence (looked up): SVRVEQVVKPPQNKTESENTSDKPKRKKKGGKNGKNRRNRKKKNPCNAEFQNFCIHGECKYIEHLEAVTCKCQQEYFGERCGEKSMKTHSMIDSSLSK

T3: human NRG1-β1 protein (full length, HA tag at the N-terminus, on NRG1-b/st293T cells) (human, UniProt Q02297 20-640)
T3 construct: also called NRG1 isoform 1; HA-NRG1-b/st293T; not shown: HA tag added to the N-terminus
T3 sequence: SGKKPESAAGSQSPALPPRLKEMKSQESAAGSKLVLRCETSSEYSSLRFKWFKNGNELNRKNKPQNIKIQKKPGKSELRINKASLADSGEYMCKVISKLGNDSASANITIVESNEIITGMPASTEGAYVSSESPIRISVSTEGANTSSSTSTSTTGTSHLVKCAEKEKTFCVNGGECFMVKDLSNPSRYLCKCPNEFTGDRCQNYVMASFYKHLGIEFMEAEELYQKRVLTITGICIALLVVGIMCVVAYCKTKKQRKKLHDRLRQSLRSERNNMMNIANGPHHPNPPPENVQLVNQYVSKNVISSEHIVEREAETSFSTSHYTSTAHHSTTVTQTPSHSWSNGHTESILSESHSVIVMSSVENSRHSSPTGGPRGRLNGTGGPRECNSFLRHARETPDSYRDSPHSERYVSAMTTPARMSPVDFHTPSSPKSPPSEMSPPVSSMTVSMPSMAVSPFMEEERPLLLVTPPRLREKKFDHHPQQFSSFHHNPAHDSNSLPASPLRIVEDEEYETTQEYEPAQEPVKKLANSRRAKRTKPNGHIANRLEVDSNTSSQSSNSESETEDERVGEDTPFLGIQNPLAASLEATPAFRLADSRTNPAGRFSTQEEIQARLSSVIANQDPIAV

T4: agPa (synthetic peptide containing the cleavage region of NRG1-a, bound to KLH); positions 221 to 244 of the … (human, bound to KLH)
T4 peptide: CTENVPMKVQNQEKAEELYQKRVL


Legend:
[1] = target: T1, human NRG1-α protein (full length, HA …); assay: ELISA on partial-length proteins and flow cytometry on NRG1-a/st293T cells (FIGS. 5 to 7)
[2] = target: T5, TGF-alpha (transforming growth factor α; R&D Systems 239-A-100) (UniProt P01135 40-89); assay: ELISA, factor on the plate at 0.5 µg/mL (FIG. 8)
T5 construct: Bought protein; also called TGFα; TGF-α
Procedure: (§1) After the solution was removed, 1% BSA (manufactured by Nacalai Tesque, Inc.: 01863-35)—5% Sucrose (manufactured by WAKO PURE CHEMICAL […], LTD.)—PBS was added in an amount of 150 μL/well, and left to stand at room temperature for 2 hours to block the remaining active groups. After the resultant was left to stand, the solution was removed, and the hybridoma culture supernatant was dispensed as a primary antibody in an amount of 50 μL/well and left to stand for 1 hour. After the plate was washed with 0.05% Tween 20-PBS, an HRP-labeled anti-mouse IgG antibody (manufactured by MBL Co., Ltd.: 330) having been diluted 10000 times was added as a secondary antibody in an amount of 50 μL/well and left to stand at room temperature for 1 hour. After the plate was washed with 0.05% Tween 20-PBS, a color developing solution (5 mM sodium citrate, 0.8 mM 3.3′.5.5′-tetramethylbenzidine-2HCl, 10% N,N-dimethylformamide, 0.625% polyethylene glycol 4000, 5 mM citric acid monohydrate, 5 mM H2O2) was added thereto in an amount of 50 μL/well and left to stand at room temperature for 20 minutes to develop a color. The color development was terminated by adding 1 M phosphoric acid in an amount of 50 μL/well. Then, the absorbance at 450 nm was measured using a plate reader (manufactured by Thermo Fisher Scientific Inc.).
(§2) As described above, any homology with the NRG1 protein is low in the EGF domain. Nonetheless, 8a4, 10bM3, and 10b2M3 capable of recognizing the vicinity of the EGF domain were analyzed for the reactivity with the other factors of the EGF family by the same ELISA as above. To be more specific, each of EGF (manufactured by R&D Systems, Inc.: 236-EG-200), HB-EGF (manufactured by R&D Systems, Inc.: 259-HE-050/CF), TGF-alpha (manufactured by R&D Systems, Inc.: 239-A-100), AREG (manufactured by R&D Systems, Inc.: 262-AR-100/CF), NRG1-α (manufactured by R&D Systems, Inc.: 296-HR-050/CF), or NRG1-b (manufactured by R&D Systems, Inc.: 296-HB-050/CF) was dispensed in a 96-well ELISA plate in an amount of 0.5 μg/mL, that is, 50 μL/well, and immobilized thereto, for detection of the reaction with each antibody in amounts of 10 μg/mL and 1 μg/mL.

[3] = target: T2, AREG (amphiregulin; R&D Systems …); assay: ELISA, factor on the plate at 0.5 µg/mL (FIG. 8)
Procedure: as §1, §2

[4] = target: T6, HB-EGF (heparin-binding EGF-like growth factor; R&D Systems 259-HE-050/CF) (UniProt Q99075 63-148); assay: ELISA, factor on the plate at 0.5 µg/mL (FIG. 8)
T6 construct: Bought protein
Procedure: as §1, §2

[5] = target: T7, EGF (R&D Systems 236-EG-200) (UniProt P01133 971-1023); assay: ELISA, factor on the plate at 0.5 µg/mL (FIG. 8)
T7 construct: Bought protein
Procedure: as §1, §2

[6] = target: T3, human NRG1-β1 protein (full length, HA …); assay: flow cytometry on NRG1-b/st293T cells
[7] = target: T4, agPa (synthetic peptide containing the …); assay: ELISA, partial-length NRG1 protein on the plate (FIG. 4)
Procedure: Hybridomas producing anti-NRG1 antibodies were selected by the enzyme-linked immunosorbent assay (ELISA). The assay used the recombinant human NRG1 proteins as immunogens, which had been dispensed in a 96-well ELISA plate (manufactured by nunc A/S) in an amount of 0.5 μg/mL, that is, 50 μL/well, and left to stand at room temperature for 2 hours or 4° C. overnight for adsorption. After the solution was removed, 1% BSA (manufactured by Nacalai Tesque, Inc.: 01863-35)—5% Sucrose (manufactured by WAKO PURE CHEMICAL […], LTD.)—PBS was added in an amount of 150 μL/well, and left to stand at room temperature for 2 hours to block the remaining active groups. After the resultant was left to stand, the solution was removed, and the hybridoma culture supernatant was dispensed as a primary antibody in an amount of 50 μL/well and left to stand for 1 hour. […] Then, the absorbance at 450 nm was measured using a plate reader (manufactured by Thermo Fisher Scientific Inc.).
The sequences recognized by 8a2, 8a4, 10bM3, and 10b2M3 were analyzed by evaluating the reactivity with the recombinant NRG1 proteins. To be more specific, the analysis was performed using multiple partial-length NRG1 proteins, and the reactivity of each antibody with these was detected by the same enzyme-linked immunosorbent assay (ELISA) as above. […] The vertical axis represents the absorbance.

T5 sequence (P01135 40-89 limits assumed): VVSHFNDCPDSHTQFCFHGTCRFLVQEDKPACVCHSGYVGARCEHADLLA
T7 sequence (P01133 971-1023 limits assumed): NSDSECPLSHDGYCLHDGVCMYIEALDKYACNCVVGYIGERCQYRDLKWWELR
T6 sequence (Q99075 63-148 limits assumed): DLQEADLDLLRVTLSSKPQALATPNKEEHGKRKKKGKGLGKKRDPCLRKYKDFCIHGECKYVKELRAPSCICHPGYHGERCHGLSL

binding result [1]	binding result [6]	binding result [7]	Binder	binding result [2]	binding result [3]	binding result [4]	binding result [5]
no binding	–	–	10bM3 (antibody, mouse IgG1, V domains shown, Mouse monoclonal antibody; Variable genes were amplified with mouse IgG1 CH1 and kappa constant region primers; The printed VL ends at ...GTKL) VH: EVQLVESGGGLVKPGGSRKLSCAASGFTFSDYGIHWVRQAPEKGLEWLAYISSGSSTIYYADTVKGRFTISRDNAKNTLFLQMTSLRSEDTAMYYCARGSNYVGYYAMDYWGQGTSVTVSS VL: DIVMTQSPSSLAVTAGEKVTMRCKSSQSLLWSVNQKNYLSWYQQKEGQSPKLLIYGASIRESWVPDRFTGSGSGTDFTLTISNVHAEDLAVYYCQHNHGRFLPLTFGGGTKL	no binding (tested: 10 µg/mL and 1 µg/mL)	no binding (tested: 10 µg/mL and 1 µg/mL)	no binding (tested: 10 µg/mL and 1 µg/mL)	no binding (tested: 10 µg/mL and 1 µg/mL)
–	no binding (tested: 5 µg/mL)	binds	8a4 (antibody, mouse IgG1, V domains shown, Mouse monoclonal antibody; Variable genes were amplified with mouse IgG1 CH1 and kappa constant region primers; The printed VL ends at ...GTKL; also called 8a4 antibody) VH: EVQLQQSGADLVRPGASVKLSCTASGFNIKDDYIHWVKQRPEQGLEWIGWIDPENGDTEYASQFQGKATITADTSSNTAYLQLRSLTSEDTAVYYCTTSDHRAWFAFWGLGTLVTVSS VL: DVLMTQTPLSLPVSLGDQASISCRSSQTIVHRNGNTYLEWYLQKPGQSPKLLIYRVSNRFSGVPDRFSGSGSGTDFTLKISRVEAEDLGVYYCFQGSHVPLTFGAGTKL	no binding (tested: 10 µg/mL and 1 µg/mL)	no binding (tested: 10 µg/mL and 1 µg/mL)	no binding (tested: 10 µg/mL and 1 µg/mL)	no binding (tested: 10 µg/mL and 1 µg/mL)
no binding	–	–	10b2M3 (antibody, mouse IgG1, V domains shown, Mouse monoclonal antibody; Variable genes were amplified with mouse IgG1 CH1 and kappa constant region primers; The printed VL ends at ...GTKL; also called 10b2M3 antibody) VH: QVQLQQSGPELVKPGASVKISCKASGYAFSSSWMNWVKQRPGKGLEWIGRIYPGDGDIYYNGKFKGKATLTADKSSSTAYMQLNSLTSEDSAVYFCARTFNYPFFAYWGQGTLVTVSS VL: DILMTQSPSSLTVSTGEKVTMSCKSSQSLLASANQNNYLAWHQQKPGRSPKMLIIWASTRVSGVPDRFIGSGSGTDFTLTINSVQAEDLAVYYCQQSYSAPTTFGAGTKL	no binding (tested: 10 µg/mL and 1 µg/mL)	no binding (tested: 10 µg/mL and 1 µg/mL)	no binding (tested: 10 µg/mL and 1 µg/mL)	no binding (tested: 10 µg/mL and 1 µg/mL)
